From the supplement of paper PMC12636428

System: Saccharomyces cerevisiae
Experiment: transcriptional activation domain activity (GFP:mCherry ratio, weighted mean of sorted bins, harmonized to initial dataset scale) (arbitrary fluorescence ratio units); higher = stronger transcriptional activation
Conditions: beta-estradiol 1 µM; induction time 4 h
Outline: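 After a 1:5 dilution into SC with 1 uM beta-estradiol and 4 hours at 30 °C, yeast diploids carrying a GFP reporter and URA3-integrated barcoded tiles were sorted into 8 bins by GFP:mCherry ratio. The tiles were fused to an estradiol-inducible synthetic transcription factor. Barcodes were sequenced, tiles below 50 reads were discarded, and activation activity was taken as the read-weighted mean of bin median fluorescence, averaged across barcodes and linearly mapped onto the initial dataset scale.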

Sequence	transcriptional activation domain activity
SLNIDSMLDDYVSSDLLLNDDDDDTNLSRRRFSDVITNQFPSMTNSRNSISHS	52600
SASSNTRPREPSPEPYRKPREESRDRKRHRSRDRRRDRSPGGKKSRAREGRRD	35900
MPIPLRLPFPFCFWVRMGLLDVYYHTVGGLYGYVLGGGVVICWRWWCFSFFCL	55500
LCYQRMLLRVLLSFCDWIIKLESASQASKLGESMILARRSVDLLVIAIINVGT	40700
IGLQMASFVLGGFVYFGLSFQSSNYVVLLYYEFAALSQNVYLTVAIIWRLLIF	72300
MGLWARFICFVIVCFQITFLYCLFSCSPSFLYFQKTQPLFFTFFFSFPSFLLL	56800
TSTSGGSLFGGGSTAAPSTGSGGLFGNNSSTPATGAQPGTSLFGKPAGGATAG	14200
ETPAAEPVKETETAAEAAPAEAAAEATPEEAKEEKKEEKKEEKVKGSKVGRRL	32500
KTIGKQDPYCAARLGKEAKKTETDRRGGQTPRWDQELRFTVHDSPDYYQLKVS	55000
MQNKIVQALNWVCVDLNPPLTSFYFSPFFSFFPTLSSCFNTPLFFFLFSSFFF	61800
VKGAGKGKGKDDGKKNSMVLLLLCSLLSVNFMLGNYAPQLWILLLVPMSLAAP	45000
KKERKKEEKEEKGEKVKGKGERYVSDQVEEERERRRKRRNAKRQEREEEREKR	42900
LLYLCRDILMAVFAWSLAIQIDPFFTNVVIRSILSPTIAKTFRWMSWCVYWWF	57700
AEKEAEPEKEAGSESPQKKITPMKRGRGRPKRGGGAAGASSPEPAAVVVVAER	14700
KKSGTTSKDEKKEGDSDSKATPSSGESAAPSAANNEGGKKEEKSEEKKEEKEE	41700
FFDDIPDTLESIRKHIDLFGNDFYLAHIYRTLRWWTKPTHVAVLGDLLGSQWI	70300
MWCTRWFLPLLLLPLPTAPPYFLLLFLFSLTMHAKPCFYCIVLLTTLFVSSCY	47800
MSSPNEKMDVDRASPDRRSKSSRNHSTETHRTKRSHRSRSRGGERDKERRDRR	34300
VMPTWLWMPLLLVANFFCRFFLFHLIICSYIYPLLYVQLMWVFWFIWRGVFSF	55700
EIVDPMQSWLPFQPEASDNVLPDENFFLDDSLFTFGDTLTPNFGPVEWYDLLA	140000
SSEGGEENKAEEAELEKADKPKEETTEEKKSEEEKPEEKKPEEKKPEETKAEN	18500

Sequence	transcriptional activation domain activity
AQLLRLAHIHQIRHMVHIFSPVWYRPAVIYCFIAICFIVVLNIQALLSIVWSS	45900
MGIIIVVCVFFFLTGFLFTLVFLLSLWSLFVFFYFINFSFPLSFALLLLIFFL	40500
PEPVSEEPKAESSRTATAPPSLARRAASYFVSSFRGRTLHGTKIDVPDGYTGL	49000
AIENGGASDGEPKKRVRKRGGRKNKARRDSAAAAAAAAAAAAAGGQSSAALAP	< 6570
GIESAGLEVITAQQLEQYAKDQKVLSNCMERNGITAVLCVGLRYIACLIMIIY	66200
VKAAAPKRGGRKKKVEAKAEAGDEVEAAVFEKKEVEEEEKEKGGEKEVKETVE	9930
IWSFVILLRETVLCGSIVLAISATSDYFYYGLWTFPPYQWLNFNLTQSLAVFY	66800
KATYHAMLHICRDIAKETLFFFHLVQEHPDDLPLVQSVLILLISCISRVVCTL	55000
VAPLLLAGACCIAHHFMLVFLEGCTVQSEFWIRNANSAFSLLISALLASCVGT	77100
MALIAFFLLFYLINLLYSLKLFLQYFFFTFTIPYLYIAYAFFFILYSLFLVFS	42900
ANVSATAAPIVAVKRGRGRPRKDPSETQAAKKAAAAAVAPDGAKRGRGRPRLV	45200
ETKGASGEGGKSTSESGSASSSSSKGEGKAAGEQGSSGSSSGSSSESGSKEKT	30100
MKHETLFFLFCRSLTRFFPMFGASFFFVLFLDLFVFVFCVVYGYSRFIFFLFV	50300
SAPNDSTTAPTNASNIANTASVNKQMYFMNMNMNNNPHALNDPSILETLSPFF	71400
MFYNAQFVDCGPSALVMVLVLLAPYLPNPLQLRRAFTTRPPTVLFAVLGILET	61600
VRYKGGLVGKHFKSLAQVMPYLIYDLVPRSVLDGWVMIGRLVVLLWHTLIEDT	85100
GEIAQLWDFNVDQFNMTPSNSSGSATISAPNSFTSDIPQYNHGSLGNSVSKSS	48300
NPPSWHHTLVFWGGKLFFCFYRIILPAYLIGWARTLLYLTLSDLVSSYWLALT	51300
FMHYYRRDRRHLKFLVLLVLFLSTCHFGLYVLTIFRVFVTMHSVVIPSHQVPW	63000
IAAAGSNAASGHPDAKRAKTGASGSRAGSPSGSPPGSKPASRAGSPGAPRVPA	16900
SRGICVYPFLPFAFFLGVFFSLMEFVLLGMMMVLYLYMRTVTCMFDISICLLL	48500

Sequence	transcriptional activation domain activity
YCGSLGCMILVAGIKLLRLLKHHLTVQRALRSNIGKIKAGMLKVKIIMIVGCV	66400
TGGSLFGANKPAFGNAASTSGPFGGGASSGFGGNTGAFGSPASTALGATTGEC	51300
PLAGNSPGLPPEEVRNNSENASHNNETGPIETELAQTISNEFWTAYNLGWEEL	56400
TMEMAWLDMGRFFYFLFFYFLFFLLSSFFVFFYSFIYFFFSLLLFFFILWLEM	45900
IGVLHQVFFYKNLIWTFALLLFQIFCESNATYLFDYSLVLLFNLIFTSLPVIM	53200
SLFLLVVSINDVQTINFFYFVTDYGSWLEIGTSISHFCIAELFIIFTICLFWL	37800
FSWFALANIWLMFSIIIDLLPGQNIIIFGTADIICGTHWMNLVFKWIYLAFLV	36900
FRSGHSFPRKFGFCVEFTYNFISLLFNWFGLVSASIFFFCFSLFLFFVFYVLT	25000
RKHMMAFYFDDILEKVVGTATMDERGVFIRDNERGILWCLLVFRMLCWLILHD	58000
MSYLQMFTLIEGKFQKQMLFLFFFLLCNLLSFFYIYIYVLLTLIFFTTTSIHL	56700
RPQSKERGGRREDGAGTDEGDSSTHPSCSSHVGRQEGVFQTVQCKHYWVVKWE	49900
MAVETVGLGWRTLRSLIIEFILFYCLFTALGYNSLSLLNYRPWIFFSFLFCLF	57500
NTWLQQLQDELNGSYSLTDNVNTPIDPSLSDLGVTSASPLAGNSPGLPPEEVR	92100
MRTPSTSPFDFCFFFAFSFLLLCWPVIPFILLFYILKFLWTYPFVFCVLYFIE	37600
IRPSTPAATRSTSPPRPRPPRASRSPRPRRTRGRRSSKLRRKATSPPPATAPS	38200
LLLHVLIALRFWRFFGYSIGMVCGILLELVGYCGKVQLSHNRDNKDGYIIGLT	50800
MFPGLQYTLLCIHLSCDFIICCRAFLPYYLCFSHYFPVLMCPVSPVLILVWFI	53600
QQLRIKIDSWSYQYGVDEVIRNRNRNLLIQMYMLLPPARFWLYMKRVRIMLLN	66500
MQADNLPFMCVCPYFLSTYSSSLSLVFPLFFFLCLFLLFPFFAFLLLLSLFSC	44500
